Reference: US10280218B2, “Antibodies binding to BMP4, and uses thereof” (ACADEMISCH MEDISCH CENTRUM, priority 2014, dated 2019)

What was measured:
Assay in all cases: Surface plasmon resonance (SPR), BMPs injected over VHH-coated chip
[1] = molecular target: T1, BMP6 (Homo sapiens, UniProt P22004); settings: molecule coupled to chip; unit inferred; — not defined there (Table 1: No binding detected)
T1 sequence (P22004 375-513): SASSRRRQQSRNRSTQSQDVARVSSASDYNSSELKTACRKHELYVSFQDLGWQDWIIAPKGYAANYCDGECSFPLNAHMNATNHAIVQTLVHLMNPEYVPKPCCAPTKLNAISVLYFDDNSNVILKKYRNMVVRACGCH
Protocol: (§1) To confirm their BMP specificities and to elucidate their binding affinities, our VHHs were subjected to surface plasmon resonance (SPR) analysis. In a first set of experiments, controls and VHHs (either as monomers or dimers) were coupled to SPR chips and the measurement of BMP affinities was obtained by injecting the different BMPs to the plate.
(§2) Serial dilutions (2.0-10 μg/ml) of purified VHHs were spotted on an amine-specific SensEye gold-film gel-type SPRchip (Ssens), using a Continuous Flow Microspotter (Wasatch Microfluidics, Salt Lake City, Utah, United States) as described (Lokate et al., 2007). BMP binding was analyzed on an IBIS MX96 (IBIS Technologies, Enschede, The Netherlands) instrument by performing injections with dilution series (0.05-2.0 μg/ml) of recombinant BMPs on the VHH-coated chip. In each injection, BMPs were injected and incubated for 8 min, followed by 15 min thorough washing with binding buffer (PBS+0.05% Tween20+0.05% sodium azide) to measure dissociation. Epitope binning was done by injecting VHH dilutions (2.0 μg/ml) over the chip, immediately after the dissociation step. Injections with blank binding buffer were used as reference. After each concatenated injection, the chip was regenerated with 10 mM glycine-HCl, pH 2.0. Experimental data were processed with SPRintX software (IBIS Technologies) and kinetic parameters were determined using Scrubber2 software (BioLogic Software, Campbell, ACT, Australia). Binding constants were obtained by global fitting to a one-site binding model.

[2] = molecular target: T2, BMP5 (Homo sapiens, UniProt P22003); type: binding; settings: molecule coupled to chip; unit inferred
T2 sequence (P22003 317-454): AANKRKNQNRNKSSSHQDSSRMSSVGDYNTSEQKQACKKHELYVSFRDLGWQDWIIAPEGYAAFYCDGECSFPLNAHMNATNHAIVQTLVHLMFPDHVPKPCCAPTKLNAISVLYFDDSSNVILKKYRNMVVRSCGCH
Protocol: as §1, §2

[3] = molecular target: T3, BMP7 (Homo sapiens, UniProt P18075); type: binding; settings: for Kd: molecule coupled to chip, unit inferred, — not defined there (Table 1: No binding detected)
T3 sequence (P18075 293-431): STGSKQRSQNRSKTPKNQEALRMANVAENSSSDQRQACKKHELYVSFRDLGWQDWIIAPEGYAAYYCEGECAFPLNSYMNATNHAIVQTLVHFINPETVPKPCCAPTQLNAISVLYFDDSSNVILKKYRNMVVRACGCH
Protocol: as §1, §2

[4] = molecular target: T4, BMP4 (Homo sapiens, UniProt P12644); type: binding; design: purchased R&D systems; ka (BMP4): unit not given here; settings: molecule coupled to chip
T4 sequence (P12644 293-408): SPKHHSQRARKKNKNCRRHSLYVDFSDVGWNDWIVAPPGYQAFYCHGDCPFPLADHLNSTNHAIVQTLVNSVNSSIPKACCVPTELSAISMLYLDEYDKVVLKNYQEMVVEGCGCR
Protocol: as §1, §2

B1: hNoggin (protein)
chain: QHYLHIRPAPSDNLPLVDLIEHPDPIFDPKEKDLNETLLRSLLGGHYDPGFMATSPPEDRPGGGGGAAGGAEDLAELDQLLRQRPSGAMPSEIKGLEFSEGLAQGKKQRLSKKLRRKLQMWLWSQTFCPVLYAWNDLGSRFWPRYVKVGSCFSKRSCSVPEGMVCKPSKSVHLTVLRWRCQRRGGQRCGWIPIQYPIISECKCSC
B1 was tested, and the Kd [1] was 50 nM, the Kd [2] was 68 nM and the Kd [3] was 80 nM. For the same molecule, the “kd (BMP4)” value [4] was 3.9 10^−5 sec^−1.

B2: C8E7: E7 linked to C8, hetero-dimer VHH bihead (protein)
chain: EVQLVESGGGLVQAGGSLRLSCAASGRTFRINDMGWYRQAPGKSRDMVARITSGGNTNYADSVKGRFTISRDNAKNTVYLQMNSLKPEDTAVYYCNADGLRFDSTRYRPFDSWGQGTQVTVSSGGGGSGGGGSEVQLVESGGGLVQAGGSLRLSCAASGSIRGFVAMAWYRQAPGKQREWVATVTNGGTLYGDSVKGRFTGSRDNAKNTVYLQMNSLKPEDTAVYYCALRQIGASGYDYWGQGTQVTVSS
B2 was tested, and the Kd [1] was 50 nM, the Kd [2] was 95 nM and the “unspecific binding of dimers to BMP7 (SPR, in words)” value ([3]; in contrast to the functional results) was “shown to bind”. For the same molecule, the Kd [3] was 31 nM, the “ka (BMP4)” value [4] was 34.6 and the “kd (BMP4)” value [4] was 3.4 10^−5 sec^−1.
